# Patent publication US20260166139A1
# “And” between values parts separate entries of the source, which are not always exact repeats. Identical values can stand only once.
# Legend:
# [1] = target: human CTLA4 (human) (UniProt P16410); test: ELISA, coat human CTLA4 0.5 ug/ml; antibody 1:9 (start 1 ug/ml)
# [2] = target: human CTLA4 (human) (UniProt P16410); test: ELISA on coated CTLA4, source Human (row of 8D2H2L15)
# [3] = target: human CTLA4 (human) (UniProt P16410); test: ELISA, coat CTLA4 0.5 ug/ml; antibody 1:81 (start 1 ug/ml)
# [4] = target: CTLA4-mFc; test: competitive ELISA, CTLA4-mFc coated, competitor B7/2-His; antibody 1 µg/ml diluted 1:81
# Sequence of CTLA4-mFc (chain, as listed by the source limits assumed): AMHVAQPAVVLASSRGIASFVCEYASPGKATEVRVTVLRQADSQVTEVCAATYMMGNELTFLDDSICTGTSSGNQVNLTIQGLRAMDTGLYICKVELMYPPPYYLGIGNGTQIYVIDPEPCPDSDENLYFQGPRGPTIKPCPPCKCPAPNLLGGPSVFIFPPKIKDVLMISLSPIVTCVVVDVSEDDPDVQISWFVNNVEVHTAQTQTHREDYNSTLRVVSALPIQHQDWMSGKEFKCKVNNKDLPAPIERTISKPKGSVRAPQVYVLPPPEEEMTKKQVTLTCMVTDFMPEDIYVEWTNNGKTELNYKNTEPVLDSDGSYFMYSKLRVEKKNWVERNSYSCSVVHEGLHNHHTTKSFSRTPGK
# [5] = target: human CTLA4 (human) (UniProt P16410); test: ELISA, coat CTLA4 0.5 ug/ml; antibody 0 (blank)
# [6] = target: CTLA4-mFc; test: competitive ELISA, CTLA4-mFc coated, competitor B7/2-His; antibody 1 µg/ml diluted 1:3
# [7] = target: murine CTLA4 (murine) (UniProt P09793); test: ELISA on coated CTLA4, source Mouse (row of 8D2H1L1)
# [8] = target: CTLA4-mFc; test: competitive ELISA, B7/1-hFc coated (competitor), CTLA4-mFc added; antibody 5 µg/ml diluted 1:729
# [9] = target: human CTLA4 (human) (UniProt P16410); test: ELISA, coat CTLA4 0.5 ug/ml; antibody 1:9 (start 1 ug/ml)
# [10] = target: CTLA4-mFc; test: competition ELISA, coat B7/1-hFc 0.2 ug/ml (competitor), CTLA4-mFc 0.3 ug/ml detected; antibody 1:27 (start 3 ug/ml)
# [11] = target: CTLA4-mFc; test: competitive ELISA, competitor B7-1; control run with 8D2H3L3
# [12] = target: human CTLA4 (human) (UniProt P16410); test: ELISA, coat human CTLA4 0.5 ug/ml; antibody 1:3 (start 1 ug/ml)
# [13] = target: CTLA4-mFc; test: competitive ELISA, CTLA4-mFc coated, competitor B7/2-His; antibody 3 µg/ml diluted 1:729
# [14] = target: CTLA4-mFc; test: competitive ELISA, competitor B7-1; control run with 8D2H2L2
# [15] = target: CTLA4-mFc; test: competitive ELISA, competitor B7-2; control run with 8D2H1L1
# [16] = target: CTLA4 antigen (NCBI Gene ID: 1493) obtained by TEV protease cleavage of CTLA4-mFc (Homo sapiens (Human)) (UniProt P16410); test: BLI (Fortebio), antibody on AR2G sensor, CTLA4 in solution
# Sequence of CTLA4 antigen (NCBI Gene ID: 1493) obtained by TEV protease cleavage of CTLA4-mFc (Homo sapiens (Human)) (P16410 37-161 limits assumed): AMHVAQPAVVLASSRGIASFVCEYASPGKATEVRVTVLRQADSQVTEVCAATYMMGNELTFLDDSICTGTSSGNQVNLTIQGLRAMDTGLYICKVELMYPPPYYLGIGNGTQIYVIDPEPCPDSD
# [17] = target: human CTLA4 (human) (UniProt P16410); test: ELISA, coat human CTLA4 0.5 ug/ml; antibody 1:81 (start 1 ug/ml)
# [18] = target: human CTLA4 (human) (UniProt P16410); test: ELISA, coat CTLA4 0.5 ug/ml; antibody 1:243 (start 1 ug/ml)
# [19] = target: CTLA4-mFc; test: competitive ELISA, CTLA4-mFc coated, competitor B7/2-His; antibody 0 (no antibody)
# [20] = target: CTLA4-mFc; test: competition ELISA, coat B7/1-hFc 0.2 ug/ml (competitor), CTLA4-mFc 0.3 ug/ml detected; antibody 1:3 (start 3 ug/ml)
# [21] = target: CTLA4-mFc; test: competitive ELISA, CTLA4-mFc coated, competitor B7/2-His; antibody 3 µg/ml diluted 1:27
# [22] = target: human CTLA4 (human) (UniProt P16410); test: ELISA, coat human CTLA4 0.5 ug/ml; antibody 1:81 (start 1 ug/ml); remark: listed apart in the source
# [23] = target: CTLA4-mFc; test: competitive ELISA, CTLA4-mFc coated, competitor B7/2-His; antibody 1.5 µg/ml
# [24] = target: CTLA4-mFc; test: competitive ELISA, competitor B7-1; control run with 8D2H2L17
# [25] = target: monkey CTLA4-hFc (monkey); test: ELISA, coat monkey CTLA4-hFc 0.25 ug/ml; antibody 1:81 (start 1 ug/ml)
# [26] = target: CTLA4-mFc; test: competitive ELISA, CTLA4-mFc coated, competitor B7/2-His; antibody 3 µg/ml
# Sequence of human CTLA4 (human) (P16410 36-161 limits assumed): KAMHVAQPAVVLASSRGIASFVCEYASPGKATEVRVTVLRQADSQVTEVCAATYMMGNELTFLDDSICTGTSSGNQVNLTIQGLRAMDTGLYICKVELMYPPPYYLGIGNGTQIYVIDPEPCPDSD
# Sequence of control antibody 11.2.1 (VH): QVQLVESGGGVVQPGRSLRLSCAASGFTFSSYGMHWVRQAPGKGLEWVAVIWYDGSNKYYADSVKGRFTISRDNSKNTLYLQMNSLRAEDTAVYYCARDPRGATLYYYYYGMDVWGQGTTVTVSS
# Sequence of control antibody 11.2.1 (VL): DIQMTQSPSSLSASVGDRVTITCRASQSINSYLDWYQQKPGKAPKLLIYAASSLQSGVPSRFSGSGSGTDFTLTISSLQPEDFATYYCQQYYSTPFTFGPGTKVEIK
substance,measurement,setting,value
control antibody 11.2.1,absorbance at 450 nm,[1],3.21 and 3.19
same,EC50,[2],75 pM
same,absorbance at 450 nm,[3],1.37 and 1.53
same,absorbance at 450 nm,[4],0.84 and 0.76
same,absorbance at 450 nm,[5],0.05
same,absorbance at 450 nm,[6],0.05
same,EC50,[7],23 pM
same,absorbance at 450 nm,[8],0.909 and 0.793
same,absorbance at 450 nm,[9],2.69 and 2.44
same,absorbance at 450 nm,[10],0.597 and 0.579
same,EC50,[11],1070 pM
same,absorbance at 450 nm,[12],3.5 and 3.48
same,absorbance at 450 nm,[13],1.36 and 1.23
same,EC50,[14],1070 pM
same,EC50,[15],150 pM
same,Kd,[16],903 pM
same,koff,[16],0.000349 s⁻¹
same,kon,[16],387000 M⁻¹ s⁻¹
same,absorbance at 450 nm,[17],1.25 and 1.27
same,absorbance at 450 nm,[18],0.75 and 0.79
same,absorbance at 450 nm,[19],0.987 and 0.819
same,absorbance at 450 nm,[20],0.119 and 0.133
same,absorbance at 450 nm,[21],0.676 and 0.585
same,absorbance at 450 nm,[22],0.499 and 0.426
same,absorbance at 450 nm,[23],0.372 and 0.494
same,EC50,[24],2610 pM
same,absorbance at 450 nm,[25],0.297 and 0.313
same,absorbance at 450 nm,[26],0.492 and 0.442
